Experimental data reported in US20230287598A1 (TAURUS BIOSCIENCES, published 2023).
Where a chain is given by its changes, count along the chain named. In names and notes the source's numbering stands. Where two headings read alike, the source gives them in different places.

How the values were obtained:
[1] = molecular target: T1, CXCR1 (UniProt P25024 1-350, limits assumed); test: flow cytometry on CXCR1-U2OS cells (parental U2OS: 5)
T1 construct: whole, on cells; DiscoveRx PathHunter cell line; any reporter tag on the receptor is not described; also called CXCR1 receptor; CXCR1-U2OS
T1 sequence (looked up): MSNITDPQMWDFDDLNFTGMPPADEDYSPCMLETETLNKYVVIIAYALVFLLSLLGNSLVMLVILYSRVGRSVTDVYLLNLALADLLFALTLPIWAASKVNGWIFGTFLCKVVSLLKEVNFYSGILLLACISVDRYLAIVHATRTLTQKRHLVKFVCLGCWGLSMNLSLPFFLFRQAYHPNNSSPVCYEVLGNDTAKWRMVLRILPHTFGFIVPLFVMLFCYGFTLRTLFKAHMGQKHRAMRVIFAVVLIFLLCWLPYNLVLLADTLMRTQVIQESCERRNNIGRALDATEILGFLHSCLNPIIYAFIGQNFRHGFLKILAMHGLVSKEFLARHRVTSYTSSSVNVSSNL

[2] = molecular target: T2, CXCR1 (UniProt P25024 1-350, limits assumed); test: cell-based or functional assay
T2 sequence (looked up): T1 sequence (looked up)

[3] = molecular target: T1, CXCR1; test: flow cytometry, supernatant at 5 nM IgG
[4] = molecular target: T1, CXCR1; test: cell-based or functional assay; remark: listed apart in the source
[5] = molecular target: T1, CXCR1; test: flow cytometry, supernatant at 5 nM IgG; remark: listed apart in the source
[6] = molecular target: Kv1.3 (human (T-cells from human blood donors), UniProt P22001 1-575); test: cell-based or functional assay
[7] = molecular target: T1, CXCR1; test: flow cytometry, median fluorescence CXCR1-U2OS / parental U2OS
[8] = molecular target: T1, CXCR1; test: flow cytometry, CXCR1-U2OS / parental U2OS

Chain of Kv1.3 (P22001 whole entry): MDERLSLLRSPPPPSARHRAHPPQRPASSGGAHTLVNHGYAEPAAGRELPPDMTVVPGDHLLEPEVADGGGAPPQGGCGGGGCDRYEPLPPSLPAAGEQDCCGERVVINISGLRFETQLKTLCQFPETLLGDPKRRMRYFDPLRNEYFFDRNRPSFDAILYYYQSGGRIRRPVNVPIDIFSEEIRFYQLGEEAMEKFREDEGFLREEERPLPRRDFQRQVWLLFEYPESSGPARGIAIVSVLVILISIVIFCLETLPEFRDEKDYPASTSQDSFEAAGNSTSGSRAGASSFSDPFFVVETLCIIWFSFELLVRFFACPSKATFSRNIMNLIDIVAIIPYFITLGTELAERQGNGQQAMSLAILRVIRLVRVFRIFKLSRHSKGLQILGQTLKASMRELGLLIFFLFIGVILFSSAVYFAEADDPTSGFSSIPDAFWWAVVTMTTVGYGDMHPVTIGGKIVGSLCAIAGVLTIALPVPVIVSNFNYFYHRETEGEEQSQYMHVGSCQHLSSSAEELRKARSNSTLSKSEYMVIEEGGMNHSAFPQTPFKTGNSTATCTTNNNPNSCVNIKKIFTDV

B1: VH1-46+CDR3-IL8 IgG (antibody)
VH: QVQLVQSGAEVKKPGASVKVSCKASGYTFTSYYMHWVRQAPGQGLEWMGIINPSGGSTSYAQKFQGRVTMTRDTSTSTVYMELSSLRSEDTAVYYCTSVHQETKKYQSPRSAKELRCQCIKTYSKPFHPKFIKELRVIESGPHCANTEIIVKLSDGRELCLDPKENWVQRVVEKFLKRAENSGSGSYTYNYEWHVDVWGQGLLVTVSSAS
light: not shown
notes: also called VH1-46 BLVCDR3IL8
- median AFU on CXCR1-U2OS [1]: 6 AFU

B2: VH4-34 MutE IL-8 5R6E31D32K50S (antibody, human IgG1)
VH: QVQLREWGAGLLKPSETLSLTCAVYGGSFSDKYWSWIRQPPGKGLEWIGSINHSGSTNYNPSLKSRVTISVDTSKNQFSLKLSSVTAADTAVYYCTSVHQETKKYQSPRSAKELRCQCIKTYSKPFHPKFIKELRVIESGPHCANTEIIVKLSDGRELCLDPKENWVQRVVEKFLKRAENSGSGSYTYNYEWHVDVWGQGLLVTVSS
light: QAVLNQPSSVSGSLGQKVTISCSGSSSNIGNNYVSWYQQLPGTAPRTLIYGDTKRPSGIPDRFSGSKSGTSATLGITGLQTGDEADYYCASAEDSSSNAVFGSGTTLTVLGQPKAAPSVTLFPPSSEELQANKATLVCLISDFYPGAVTVAWKADSSPVKAGVETTTPSKQSNNKYAASSYLSLTPEQWKSHRSYSCQVTHEGSTVEKTVAPTECS
- CXCR1 activation, luminescence, 0.1 nM IL-8 domains [2]: 4060 luminescence
- CXCR1 activation, luminescence, 0.5 nM IL-8 domains [2]: 5300 luminescence
- CXCR1 activation, luminescence, 2.2 nM IL-8 domains [2]: 10300 luminescence
- CXCR1 activation, luminescence, 9.9 nM IL-8 domains [2]: 17100 luminescence
- CXCR1 activation, luminescence, 44 nM IL-8 domains [2]: 23300 luminescence
- CXCR1 activation, luminescence, 200 nM IL-8 domains [2]: 22300 luminescence

B3: VH4-34 MutF IL-8 5R6E CD1cow (antibody, human IgG1)
VH: B2 VH with A23T, V24A, Y25S, G27F, F29L, Y33A, W34V, S35G, S50E
light: B2 light
- CXCR1 activation, luminescence, 0.1 nM IL-8 domains [2]: 4180 luminescence
- CXCR1 activation, luminescence, 0.5 nM IL-8 domains [2]: 6620 luminescence
- CXCR1 activation, luminescence, 2.2 nM IL-8 domains [2]: 13500 luminescence
- CXCR1 activation, luminescence, 9.9 nM IL-8 domains [2]: 21900 luminescence
- CXCR1 activation, luminescence, 44 nM IL-8 domains [2]: 24000 luminescence
- CXCR1 activation, luminescence, 200 nM IL-8 domains [2]: 25000 luminescence

B4: VH4-34+CDR3-IL8_CDR2 Cow / VL1-51 S2A, T5N, P8S, A12G, A13S, P14L, K46R, L47T, D51G, N52D, N53T IgG (antibody)
VH: QVQLQQWGAGLLKPSETLSLTCAVYGGSFSGYYWSWIRQPPGKGLEWLGSIDTGGNTGYNPSLKSRVTISVDTSKNQFSLKLSSVTAADTAVYYCTSVHQETKKYQSPRSAKELRCQCIKTYSKPFHPKFIKELRVIESGPHCANTEIIVKLSDGRELCLDPKENWVQRVVEKFLKRAENSGSGSYTYNYEWHVDVWGQGLLVTVSSAS
light: B2 light
notes: nt HC 433, LC 486
- Specific Binding (CXCR1-Cell median AFU / Parental Cell median AFU) [3]: 3

B5: VH4-34+CDR3-IL8_CDR2 Cow / VL1-51 S2A, T5N, P8S, A12G, A13S, P14L, D51G, N52D, N53T IgG (antibody)
VH: B4 VH
light: B2 light with R46K, T47L
notes: nt HC 433, LC 444
- Specific Binding (CXCR1-Cell median AFU / Parental Cell median AFU) [3]: 4

B6: VH4-34+CDR3-IL8_CDR2 E50S / VL1-51 S2A, T5N, P8S, A12G, A13S, P14L IgG (antibody)
VH: B4 VH with L48I, D52N, T53H, G54S, N56S, G58N
light: B2 light with R46K, T47L, G51D, D52N, T53N
- Specific Binding (CXCR1-Cell median AFU / Parental Cell median AFU) [3]: 4

B7: VH4-34+CDR3-IL8 / VL1-51 S2A, T5N, P8S, A12G, A13S, P14L, K46R, L47T, D51G, N52D, N53T IgG (antibody)
VH: B4 VH with L48I, S50E, D52N, T53H, G54S, N56S, G58N
light: B2 light
notes: nt HC 430, LC 486
- Specific Binding (CXCR1-Cell median AFU / Parental Cell median AFU) [3]: 12

B8: VH4-34+CDR3-IL8_CDR1-G31DY32K_CDR2-E50S_Q5RQ6E / VL1-51 S2A, T5N, P8S, A12G, A13S, P14L, K46R, L47T, D51G, N52D, N53T IgG (antibody)
VH: B2 VH
light: B2 light
notes: also called BID 38; VH4-34 MutE IL-8 5R6E31D32K50S
- CXCR1 activation, luminescence at 0.4 nM IL-8 domains [4]: 6190
- CXCR1 activation, luminescence at 1.6 nM IL-8 domains [4]: 8160
- CXCR1 activation, luminescence at 6.25 nM IL-8 domains [4]: 13500
- CXCR1 activation, luminescence at 25 nM IL-8 domains [4]: 21000
- CXCR1 activation, luminescence at 100 nM IL-8 domains [4]: 25900
- Specific Binding (CXCR1-Cell median AFU / Parental Cell median AFU) [5]: 4

B9: VH4-34+CDR3-IL8_CDR1-Cow_CDR2-Cow / VL1-51 S2A, T5N, P8S, A12G, A13S, P14L IgG (antibody)
VH: B4 VH with A23T, V24A, Y25S, G27F, F29L, G31D, Y32K, Y33A, W34V, S35G
light: B2 light with R46K, T47L, G51D, D52N, T53N
notes: also called BID 36; VH4-34 MutB IL-8 CDR1cow CDR2cow
- Specific Binding (CXCR1-Cell median AFU / Parental Cell median AFU) [3]: 11

B10: VH4-34+CDR3-IL8_CDR1-G31DY32K_CDR2-E50S / VL1-51 S2A, T5N, P8S, A12G, A13S, P14L, K46R, L47T, D51G, N52D, N53T IgG (antibody)
VH: B4 VH with G31D, Y32K, L48I, D52N, T53H, G54S, N56S, G58N
light: B2 light
notes: also called BID 37; VH4-34 MutC IL-8 31D32K50S
- CXCR1 activation, luminescence at 0.4 nM IL-8 domains [4]: 5420
- CXCR1 activation, luminescence at 1.6 nM IL-8 domains [4]: 5710
- CXCR1 activation, luminescence at 6.25 nM IL-8 domains [4]: 7160
- CXCR1 activation, luminescence at 25 nM IL-8 domains [4]: 11200
- CXCR1 activation, luminescence at 100 nM IL-8 domains [4]: 15500
- Specific Binding (CXCR1-Cell median AFU / Parental Cell median AFU) [3]: 18

B11: VH4-34+CDR3-IL8_CDR2 E50S / VL1-51 S2A, T5N, P8S, A12G, A13S, P14L, K46R, L47T, D51G, N52D, N53T IgG (antibody)
VH: B4 VH with L48I, D52N, T53H, G54S, N56S, G58N
light: B2 light
- Specific Binding (CXCR1-Cell median AFU / Parental Cell median AFU) [3]: 5

B12: VH4-34+CDR3-IL8_CDR1-Cow_CDR2-Cow / VL1-51 S2A, T5N, P8S, A12G, A13S, P14L, K46R, L47T, D51G, N52D, N53T IgG (antibody)
VH: B4 VH with A23T, V24A, Y25S, G27F, F29L, G31D, Y32K, Y33A, W34V, S35G
light: B2 light
notes: also called BID 39; VH4-34 MutD IL-8 CDR1cow CDR2cow
- CXCR1 activation, luminescence at 0.4 nM IL-8 domains [4]: 6310
- CXCR1 activation, luminescence at 1.6 nM IL-8 domains [4]: 7400
- CXCR1 activation, luminescence at 6.25 nM IL-8 domains [4]: 10200
- CXCR1 activation, luminescence at 25 nM IL-8 domains [4]: 15400
- CXCR1 activation, luminescence at 100 nM IL-8 domains [4]: 21600
- Specific Binding (CXCR1-Cell median AFU / Parental Cell median AFU) [3]: 13

B13: BLV1H12 GGS3:3 Moka (antibody)
VH: QVQLRESGPSLVKPSQTLSLTCTASGFSLSDKAVGWVRQAPGKALEWLGSIDTGGNTGYNPGLKSRLSITKDNSKSQVSLSVSSVTTEDSATYYCTSVHQETKKYQSGGSGGSGGSGINVKCSLPQQCIKPCKDAGMRFGKCMNKKCRCYSGGSGGSGGSSYTYNYEWHVDVWGQGLLVTVSSAS
light: not shown
- EC50 (nM), inhibition of T-cell activation, IL-2 secretion, Donor 1 [6]: 14.4 nM
- EC50 (nM), inhibition of T-cell activation, IL-2 secretion, Donor 2 [6]: 40.2 nM
- EC50 (nM), inhibition of T-cell activation, TNFα secretion, Donor 1 [6]: 19.3 nM
- EC50 (nM), inhibition of T-cell activation, TNFα secretion, Donor 2 [6]: 38.2 nM

B14: BLV1H12 IgG (antibody)
VH: QVQLRESGPSLVKPSQTLSLTCTASGFSLSDKAVGWVRQAPGKALEWLGSIDTGGNTGYNPGLKSRLSITKDNSKSQVSLSVSSVTTEDSATYYCTSVHQETKKYQSCPDGYRERSDCSNRPACGTSDCCRVSVFGNCLTTLPVSYSYTYNYEWHVDVWGQGLLVTVSS
light: not shown
notes: also called ULcowV
- Ratio of CXCR1/Parental [7]: 1.9
- FACS CXCR1/Parental Ratio [8]: 1.9
- median AFU on CXCR1-U2OS [1]: 9 AFU

B15: BLV1H12 GLLV 3xG4S ShK (antibody)
VH: QVQLRESGPSLVKPSQTLSLTCTASGFSLSDKAVGWVRQAPGKALEWLGSIDTGGNTGYNPGLKSRLSITKDNSKSQVSLSVSSVTTEDSATYYCTSVHQETKKYQSGGGGSGGGGSGGGGSGGRSCIDTIPKSRCTAFQCKHSMKYRLSFCRKTCGTCGGGGSGGGGSGGGGSSYTYNYEWHVDVWGQGLLVTVSSAS
light: not shown
- EC50 (nM), inhibition of T-cell activation, IL-2 secretion, Donor 1 [6]: 0.1 nM
- EC50 (nM), inhibition of T-cell activation, IL-2 secretion, Donor 2 [6]: 0.03 nM
- EC50 (nM), inhibition of T-cell activation, TNFα secretion, Donor 1 [6]: 6.5 nM
- EC50 (nM), inhibition of T-cell activation, TNFα secretion, Donor 2 [6]: 0.2 nM

B16: VH1-24+CDR3-IL8 IgG (antibody)
VH: QVQLVQSGAEVKKPGASVKVSCKVSGYTLTELSMHWVRQAPGKGLEWMGGFDPEDGETIYAQKFQGRVTMTEDTSTDTAYMELSSLRSEDTAVYYCTSVHQETKKYQSPRSAKELRCQCIKTYSKPFHPKFIKELRVIESGPHCANTEIIVKLSDGRELCLDPKENWVQRVVEKFLKRAENSGSGSYTYNYEWHVDVWGQGLLVTVSSAS
light: not shown
notes: also called VH1-24 BLVCDR3IL8
- median AFU on CXCR1-U2OS [1]: 23 AFU
